Test system: metrizamide gradient purified ventral spinal cord motorneurons
Experiment: CAT activity in metrizamide gradient-purified motorneurons
Assay type: cell-based, rat
Settings: CNTF 10 ng/ml; purified motorneuron cultures
Method: Cultures were harvested by lysing the cells in a 20 mM Tris-HCl (pH 8.6) solution containing 0.1% Triton X-100. Two microliters of the cell lysate was removed and assayed for CAT activity according to the micro-Fonnum procedure (Fonnum, 1975, J. Neurochem. 24:407-409). The final substrate composition consisted of 0.2 mM [1-^14C] Acetyl-CoA (NEN, 54.4 mCi/mmol), 300 mM NaCl, 8 mM choline bromide, 20 mM EDTA, and 0.1 mM neostigmine in 50 mM NaH2PO4 (pH 7.4) buffer. At these enzyme and substrate concentrations, the enzymatic reaction was linear for 90-120 minutes. The specificity of the induction for CAT was tested by the addition of a specific inhibitor of CAT activity, N-hydroxyethyl-4-(1-napthylvinyl) pyridium (HNP), during the assay (White and Cavallito, 1970, J. Neurochem. 17:1579-1589).
The fractionation procedure (Dohrman et al., 1986, Dev. Biol. 118:209-221) was a modification of the method described by Schnaar and Schaffner (1981, J. Neurosci. 1:204-207). Metrizamide was dissolved in F12:MEM(1:1) medium, and a step gradient consisting of 3 ml 17% metrizamide, 3 ml 12% metrizamide and 3 ml 8% metrizamide was prepared. The following steps were all carried out at 4° C. The ventral horn cell suspension (2.5 ml) obtained as described previously was layered over the step gradient, the tube was centrifuged at 2500×g for 20 minutes using a swing-out rotor. […]

B1: CNTF: ciliary neurotrophic factor; recombinant rat CNTF in Sections 10, 15, 17, purified rat sciatic nerve CNTF in Section 11; see endpoint conditions (protein, UniProt P20294 1-200, looked up)
Ciliary neurotrophic factor: MAFAEQTPLTLHRRDLCSRSIWLARKIRSDLTALMESYVKHQGLNKNINLDSVDGVPVASTDRWSEMTEAERLQENLQAYRTFQGMLTKLLEDQRVHFTPTEGDFHQAIHTLMLQVSAFAYQLEELMVLLEQKIPENEADGMPATVGDGGLFEKKLWGLKVLQELSQWTVRSIHDLRVISSHQMGISALESHYGAKDKQM
B1 was tested, and the “increase in CAT activity versus untreated cultures” value was 10 fold.
